Experiment: yeast display, Sf9 membrane polyspecificity reagent, FACS + sequencing; frameworks hold sequencing errors
In short: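 Galactose-induced (36–48 hours) yeast carrying a synthetic nanobody display library were exposed to 10% biotinylated, detergent-solubilized Sf9 membrane reagent at 4 °C for 1 hour. FACS followed streptavidin microbead enrichment, using low and high (top ~1%) gates for expression (anti-HA) and reagent binding (streptavidin). Colony PCR, MiSeq 2 × 250 sequencing and CDR-length filtering followed. Labels for polyreactivity reflect the gate of origin.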

QVQLVESGGGLVQAGGSLRLSCAASGFTFAFYAMGWYRQAPGKERELVAAISWDGVTTYYADSVKGRFTISRDNAKNTVYLQMNSLKPEDTAVYYCNVQWYGGYDYWGQGTQVTVSS
polyreactivity (PSR sort gate): low polyreactivity

QVQLVESGGGLVQAGGSLRLSCAASGFTFAFYAMGWYSPAPGKVRELVAAISWDGVTTYYADSVKGRFTISRDNAKNTVYLQMNSLKPEDTAVYYCAADYPDYAASFWPSGMYYWGQGTQVTVSS
polyreactivity (PSR sort gate): low polyreactivity

QVQLVESGGGLVQAGGSLRLSCAASGFTFAGYAMGWYRQAPGKERELVAGIRSSGARTYYADSAKGRFTISRDNAKNTVYFKMNSLKPEDTADYYFAKTDGFYRGYGYWGQGTKVTVSS
polyreactivity (PSR sort gate): low polyreactivity

QVQLVESGGGLVQAGGSLRLSCAASGFTFAHNAMGWYRQAPGKERELVAAITRSGGSTYYADSVKGRFTISRDNAKNTVYLQMNSLKPEDTAVYYCNAGRRGSGYGYWGQGTQVTVSS
polyreactivity (PSR sort gate): high polyreactivity

QVQLVESGGGLVQAGGSLRLSCAASGFTFAKNAMGWYRQAPGKERELVATISRSGGSTYYADSVKGRFTISRDNAKNTVYLQMNSLKPEDTAVYYCAADRSYGVLGNEGGYWGQGTQVTVSS
polyreactivity (PSR sort gate): high polyreactivity

QVQLVESGGGLVQAGGSLRLSCAASGFTFAKYAMGWYRQAPGKERELVAAISSSGGRTYYADSVQGRFTLSRDNAKNTDYLQMNSLKPEDTAVYYCAADFSGPFDYWGQGTQVTVSS
polyreactivity (PSR sort gate): high polyreactivity

QVQLVESGGGLVQAGGSLRLSCAASGFTFALYAMGWYRQAPGKERELVAAISSSGGSTYYADSVKGRFTISRDNAKNTVYLQMNSLKPEDTAVYYCNATRPYRYQSHTRTPRRGYWGQGTQVTVSS
polyreactivity (PSR sort gate): high polyreactivity

QVQLVESGGGLVQAGGSLRLSCAASGFTFANNAMGWYRQAPGKERELVAAITSSGTRTYYADSVKGRFTISRDNAKNTVYLQMNSLKPEDTAVYYCAADKPGRPSRMYYWGQGTQVTVSS
polyreactivity (PSR sort gate): high polyreactivity

QVQLVESGGGLVQAGGSLRLSCAASGFTFAPNAMAWYRQAPGKERELVAAITWSGGSTYYADSVKGRFTISRDNAKNTVYLQMNSLKPEDTAVYYCNAVSRSTVTGQHDYWGQGTQVTVSS
polyreactivity (PSR sort gate): high polyreactivity

QVQLVESGGGLVQAGGSLRLSCAASGFTFAPNAMGWYRPAPGKEWELVAAISSASSTYYADSVKGRFTISRDNAKYNVYLQMKSLLPEDTAVYYCNAYYWFGPGRDYWGQGTQVTVSS
polyreactivity (PSR sort gate): high polyreactivity

QVQLVESGGGLVQAGGSLRLSCAASGFTFAPYAMGWYRQAPGKERELVAAISSNGGSTYYADSVKGRFTISRDNAKNTVYLQMISMKPEYTAVYYCAVTSIGYTRYYYWGHGTQVTVSS
polyreactivity (PSR sort gate): high polyreactivity

QVQLVESGGGLVQAGGSLRLSCAASGFTFAQYTMGWYRQAPGKERELVAAIRVGGGSTYYADSVKGRFTISRDNAKNTVYLQMNSLKPEDTAVYYCAKRTYSRKFRGAYNYWGQGTQVTVSS
polyreactivity (PSR sort gate): high polyreactivity

QVQLVESGGGLVQAGGSLRLSCAASGFTFARNAMGWYRPAPGKERELVAGITSRGSSTSYADSVKGRFTISRDNAKNTVYLQMNSLKPEDTAVYYSAADRYSAYLYWDEYWGQGTQVTVSS
polyreactivity (PSR sort gate): high polyreactivity

QVQLVESGGGLVQAGGSLRLSCAASGFTFARYAMGWYRQAPGKEREFVAAIDKSGGSTYYADSVKGRFTISRDNAKNTVYLQMNSLKPEDTAVYYCAAVYSSYGRRYNSWGQGTQVTVSS
polyreactivity (PSR sort gate): high polyreactivity

QVQLVESGGGLVQAGGSLRLSCAASGFTFARYAMGWYRQAPGKERELVAAISISGGRTYYADSVKGRFSISRDNAKNTVYLQMNSLKPEDTAVYYCNKGHVPSYDYNYWGQGTQVTVSW
polyreactivity (PSR sort gate): high polyreactivity

QVQLVESGGGLVQAGGSLRLSCAASGFTFARYAMGWYRQAPGKERELVAAITYSGGRTYYAVSVKGRFTISRDNAKNTVYLQMNSLKPEDTAVYYCAVKHSSPGRYYYWGQGTQVTVSS
polyreactivity (PSR sort gate): high polyreactivity

QVQLVESGGGLVQAGGSLRLSCAASGFTFARYAMGWYRQAPGKERELVAAMTYRGGSTYYADSVKGRFTISRDNAKNTVYLQMNSLKPEDTAVYYCNAGRLWFPGVPEYDYWGQGTQVTVSS
polyreactivity (PSR sort gate): high polyreactivity

QVQLVESGGGLVQAGGSLRLSCAASGFTFARYTMGWYRQAPGKERELVAAISSRGSSTYYADSVKGRFTISRDNAKNTVFLQMNSLKPEDTAVYYCAASPYDTQSLDYDYWGQGTQVTVSS
polyreactivity (PSR sort gate): high polyreactivity

QVQLVESGGGLVQAGGSLRLSCAASGFTFARYTMGWYRQAPGKERELVAAISSRGSSTYYADSVKGRFTISRDNAKNTVYLQMNSLKPEDTAVYYCAASPYDTQTLDYAYWGQGTQVTVSS
polyreactivity (PSR sort gate): high polyreactivity

QVQLVESGGGLVQAGGSLRLSCAASGFTFATYAMGWYRQAPGKKGRLVAAISNAGSTKYADSVKGRFTISRDNAKNTVYLQMNSLKPEDTAVYYCAASTLYASSYYLYDYWGQGTQVTVSS
polyreactivity (PSR sort gate): high polyreactivity

QVQLVESGGGLVQAGGSLRLSCAASGFTFAVYAMGWYRQAPGKERELVAAISRSGTRTYYADSVKGRFTISRDNAKNTVYLQMNSLKPEDTAVYYCAAPWTQILDYWGQGTQVTVSS
polyreactivity (PSR sort gate): low polyreactivity

QVQLVESGGGLVQAGGSLRLSCAASGFTFAYNAMGWYRQAPGKERELDAAINSSGGTTYYADSVKGRFTISRDNAKNTVYLQMNSLKPEDTAVYYCAAVYSTSYSGSFPGYDYWGQGTQVTVSS
polyreactivity (PSR sort gate): low polyreactivity

Source: the nanobody polyreactivity screen of Harvey et al. (2022)
